Square brackets hold non-standard residues; d marks the D form.
B1: AP500m (peptide)
peptide: Ac-RGN[dW]N[dE]S[dK]MNEYSGW[dM]L[dM]C[dT]MGR-NH2
SMILES: CSCC[C@H](NC(=O)[C@@H](CCCCN)NC(=O)[C@H](CO)NC(=O)[C@@H](CCC(=O)O)NC(=O)[C@H](CC(N)=O)NC(=O)[C@@H](Cc1c[nH]c2ccccc12)NC(=O)[C@H](CC(N)=O)NC(=O)CNC(=O)[C@H](CCCNC(=N)N)NC(C)=O)C(=O)N[C@@H](CC(N)=O)C(=O)N[C@@H](CCC(=O)O)C(=O)N[C@@H](Cc1ccc(O)cc1)C(=O)N[C@@H](CO)C(=O)NCC(=O)N[C@@H](Cc1c[nH]c2ccccc12)C(=O)N[C@H](CCSC)C(=O)N[C@@H](CC(C)C)C(=O)N[C@H](CCSC)C(=O)N[C@@H](CS)C(=O)N[C@@H](C(=O)N[C@@H](CCSC)C(=O)NCC(=O)N[C@@H](CCCNC(=N)N)C(N)=O)[C@H](C)O
B2: AP516d (peptide)
peptide: Ac-[dR]G[dE]M[dN]Y[dF]W[dM][dN][dE][dY][dY]G[dW]T[dM]N[dC]K[dM]G[dR]-NH2
modifications: also: disulfide-linked homodimer (Cys19 to Cys19 of other copy), disulfide at 19, other end not in the chain
B3: AP505d (peptide)
peptide: Ac-RGN[dW]C[dE]S[dK]MNEYYGW[dM]L[dM]L[dT]MGR-NH2
modifications: not fully specified (residue 5); printed as RGNwCeSkMNEYYGWmLmLtMGR; also: disulfide-linked homodimer via Cys5
B4: AP506d (peptide)
peptide: Ac-[dR]G[dN]W[dN]E[dS]K[dM][dN][dE][dY][dY]G[dW]M[dL]M[dC]T[dM]G[dR]-NH2
modifications: also: disulfide-linked homodimer (Cys19 to Cys19 of other copy), disulfide at 19, other end not in the chain
B5: AP520m (peptide)
peptide: Ac-RGE[dM]N[dL]S[dW]MNEYSGW[dT]M[dN]C[dK]MGR-NH2
SMILES: CSCC[C@H](NC(=O)[C@@H](CCCCN)NC(=O)[C@H](CS)NC(=O)[C@@H](CC(N)=O)NC(=O)[C@H](CCSC)NC(=O)[C@H](NC(=O)[C@H](Cc1c[nH]c2ccccc12)NC(=O)CNC(=O)[C@H](CO)NC(=O)[C@H](Cc1ccc(O)cc1)NC(=O)[C@H](CCC(=O)O)NC(=O)[C@H](CC(N)=O)NC(=O)[C@H](CCSC)NC(=O)[C@@H](Cc1c[nH]c2ccccc12)NC(=O)[C@H](CO)NC(=O)[C@@H](CC(C)C)NC(=O)[C@H](CC(N)=O)NC(=O)[C@@H](CCSC)NC(=O)[C@H](CCC(=O)O)NC(=O)CNC(=O)[C@H](CCCNC(=N)N)NC(C)=O)[C@H](C)O)C(=O)NCC(=O)N[C@@H](CCCNC(=N)N)C(N)=O
B6: AP506m (peptide)
peptide: Ac-[dR]G[dN]W[dN]E[dS]K[dM][dN][dE][dY][dY]G[dW]M[dL]M[dC]T[dM]G[dR]-NH2
SMILES: CSCC[C@H](NC(=O)[C@@H](Cc1c[nH]c2ccccc12)NC(=O)CNC(=O)[C@@H](Cc1ccc(O)cc1)NC(=O)[C@@H](Cc1ccc(O)cc1)NC(=O)[C@@H](CCC(=O)O)NC(=O)[C@@H](CC(N)=O)NC(=O)[C@@H](CCSC)NC(=O)[C@H](CCCCN)NC(=O)[C@@H](CO)NC(=O)[C@H](CCC(=O)O)NC(=O)[C@@H](CC(N)=O)NC(=O)[C@H](Cc1c[nH]c2ccccc12)NC(=O)[C@@H](CC(N)=O)NC(=O)CNC(=O)[C@@H](CCCNC(=N)N)NC(C)=O)C(=O)N[C@H](CC(C)C)C(=O)N[C@@H](CCSC)C(=O)N[C@H](CS)C(=O)N[C@H](C(=O)N[C@H](CCSC)C(=O)NCC(=O)N[C@H](CCCNC(=N)N)C(N)=O)[C@@H](C)O
B7: AP516m (peptide)
peptide: Ac-[dR]G[dE]M[dN]Y[dF]W[dM][dN][dE][dY][dY]G[dW]T[dM]N[dC]K[dM]G[dR]-NH2
SMILES: CSCC[C@H](NC(=O)[C@@H](CCC(=O)O)NC(=O)CNC(=O)[C@@H](CCCNC(=N)N)NC(C)=O)C(=O)N[C@H](CC(N)=O)C(=O)N[C@@H](Cc1ccc(O)cc1)C(=O)N[C@H](Cc1ccccc1)C(=O)N[C@@H](Cc1c[nH]c2ccccc12)C(=O)N[C@H](CCSC)C(=O)N[C@H](CC(N)=O)C(=O)N[C@H](CCC(=O)O)C(=O)N[C@H](Cc1ccc(O)cc1)C(=O)N[C@H](Cc1ccc(O)cc1)C(=O)NCC(=O)N[C@H](Cc1c[nH]c2ccccc12)C(=O)N[C@H](C(=O)N[C@H](CCSC)C(=O)N[C@@H](CC(N)=O)C(=O)N[C@H](CS)C(=O)N[C@@H](CCCCN)C(=O)N[C@H](CCSC)C(=O)NCC(=O)N[C@H](CCCNC(=N)N)C(N)=O)[C@@H](C)O
B8: AP521m (peptide)
peptide: Ac-RGE[dC]N[dL]S[dW]MNEYSGW[dT]M[dN]M[dK]MGR-NH2
SMILES: CSCC[C@H](NC(=O)[C@@H](CCCCN)NC(=O)[C@H](CCSC)NC(=O)[C@@H](CC(N)=O)NC(=O)[C@H](CCSC)NC(=O)[C@H](NC(=O)[C@H](Cc1c[nH]c2ccccc12)NC(=O)CNC(=O)[C@H](CO)NC(=O)[C@H](Cc1ccc(O)cc1)NC(=O)[C@H](CCC(=O)O)NC(=O)[C@H](CC(N)=O)NC(=O)[C@H](CCSC)NC(=O)[C@@H](Cc1c[nH]c2ccccc12)NC(=O)[C@H](CO)NC(=O)[C@@H](CC(C)C)NC(=O)[C@H](CC(N)=O)NC(=O)[C@@H](CS)NC(=O)[C@H](CCC(=O)O)NC(=O)CNC(=O)[C@H](CCCNC(=N)N)NC(C)=O)[C@H](C)O)C(=O)NCC(=O)N[C@@H](CCCNC(=N)N)C(N)=O

What follows are binders tested against Aβ42 (UniProt P05067 672-713) (assay: cell-based or functional assay).
Chain of Aβ42 (P05067 672-713 limits assumed): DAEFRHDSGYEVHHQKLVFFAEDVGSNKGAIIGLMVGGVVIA

% inhibition of fibril formation (ThT), AP:Aβ42 1:1 [%]	% inhibition of fibril formation (ThT), AP:Aβ42 1:10 [%]	% inhibition of fibril formation (ThT), AP:Aβ42 1:100 [%]	Binder
76.6	9	0	B1
100	98.2	51.3	B2
100	79.5	51.4	B3
26.8	16.4	0	Ac-RGN[dW]C[dE]S[dK]MNEYYGW[dM]L[dM]L[dT]MGR-NH2 (not fully specified (residue 5); printed as RGNwCeSkMNEYYGWmLmLtMGR) [AP505m]
100	100	49.1	B4
100	91.2	45.3	Ac-RGE[dM]N[dL]S[dW]MNEYSGW[dT]M[dN]C[dK]MGR-NH2 (also: disulfide-linked homodimer via Cys19) [AP520d]
47	33.1	0	B5
67.6	0	0	B6
76.6	56.4	0	B7
74	34.6	0	B8
